This data set concerns Escherichia coli TOP10. Put plainly: shrunken log2 fold change of peptide-encoding DNA abundance (4.5 h post-induction vs induction); higher = less antimicrobial activity (less host growth inhibition). The following applies: time post-induction: 4.5 h; library: site-saturation at positions 5, 18, 19, 20.
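Also: peptides expressed intracellularly from a pBAD plasmid library in pooled LB shake-flask culture, induced with 0.3% L-arabinose, DNA abundance read by NGS, three biological replicates, DESeq2 with apeglm shrinkage.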

Consider RRIRMRPPRLPRPRPRPQIEPRP, for which the “shrunken log2 fold change” value came to 0.277.

Consider RRIRARPPRLPRPRPRPQVCPRP, for which the “shrunken log2 fold change” value worked out at 0.0435.

For the sequence RRIRMRPPRLPRPRPRPATNPRP, the “shrunken log2 fold change” value turned out to be 0.499.

In the case of RRIRCRPPRLPRPRPRPAGIPRP, the “shrunken log2 fold change” value was -0.0496.

For RRIRQRPPRLPRPRPRPGQTPRP, the “shrunken log2 fold change” value was determined as 0.00514.

For the sequence RRIRIRPPRLPRPRPRPFARPRP, the “shrunken log2 fold change” value is -0.0891.

As for RRIRSRPPRLPRPRPRPYFVPRP, the “shrunken log2 fold change” value is -1.14.

Turning to RRIRARPPRLPRPRPRPEMHPRP, the “shrunken log2 fold change” value came to 1.1.

Regarding RRIRIRPPRLPRPRPRPWIIPRP, the “shrunken log2 fold change” value is -0.207.

With RRIRNRPPRLPRPRPRPWFMPRP, the “shrunken log2 fold change” value is 0.0336.

RRIRDRPPRLPRPRPRPCIYPRP: the “shrunken log2 fold change” value was -0.0518.

Regarding RRIRLRPPRLPRPRPRPKDKPRP, the “shrunken log2 fold change” value was found to be 0.112.

With RRIRSRPPRLPRPRPRPDPNPRP, the “shrunken log2 fold change” value was -0.000549.

In the case of RRIRWRPPRLPRPRPRPFGIPRP, the “shrunken log2 fold change” value was -0.115.

On to RRIRQRPPRLPRPRPRPITNPRP, for which the “shrunken log2 fold change” value was -0.158.

For RRIRSRPPRLPRPRPRPRQNPRP, the “shrunken log2 fold change” value is -0.0458.

With RRIRLRPPRLPRPRPRPYRNPRP, the “shrunken log2 fold change” value was -1.13.

Turning to RRIRARPPRLPRPRPRPNWLPRP, the “shrunken log2 fold change” value was 0.275.

As for RRIRGRPPRLPRPRPRPNIKPRP, the “shrunken log2 fold change” value was 0.136.

With RRIRSRPPRLPRPRPRPTPQPRP, the “shrunken log2 fold change” value amounted to 0.388.

For the sequence RRIRCRPPRLPRPRPRPEDGPRP, the “shrunken log2 fold change” value was -0.0134.

Take RRIRPRPPRLPRPRPRPEDVPRP: the “shrunken log2 fold change” value is -0.0168.

Consider RRIRFRPPRLPRPRPRPERMPRP, for which the “shrunken log2 fold change” value was determined as 0.124.

As to RRIRPRPPRLPRPRPRPDEWPRP, the “shrunken log2 fold change” value was 0.0186.

As for RRIRHRPPRLPRPRPRPEISPRP, the “shrunken log2 fold change” value stood at 0.0458.

With RRIRLRPPRLPRPRPRPTTPPRP, the “shrunken log2 fold change” value came out at 0.138.

In the case of RRIRRRPPRLPRPRPRPIPGPRP, the “shrunken log2 fold change” value turned out to be 0.292.

Take RRIRFRPPRLPRPRPRPEIDPRP: the “shrunken log2 fold change” value came to 0.0823.

In the case of RRIRTRPPRLPRPRPRPGHPPRP, the “shrunken log2 fold change” value is 0.09.

Turning to RRIRERPPRLPRPRPRPHEHPRP, the “shrunken log2 fold change” value was -0.205.

RRIRMRPPRLPRPRPRPRSPPRP: the “shrunken log2 fold change” value worked out at 0.921.

As for RRIRRRPPRLPRPRPRPTRNPRP, the “shrunken log2 fold change” value is 0.853.

Regarding RRIRNRPPRLPRPRPRPRLNPRP, the “shrunken log2 fold change” value was -0.212.

With RRIRDRPPRLPRPRPRPWFRPRP, the “shrunken log2 fold change” value was -0.44.

As to RRIRERPPRLPRPRPRPEEKPRP, the “shrunken log2 fold change” value was -0.0137.

As to RRIRQRPPRLPRPRPRPHYMPRP, the “shrunken log2 fold change” value was -0.474.

As to RRIRARPPRLPRPRPRPCMTPRP, the “shrunken log2 fold change” value is 0.591.

Regarding RRIRARPPRLPRPRPRPANWPRP, the “shrunken log2 fold change” value came out at 0.215.

Take RRIRVRPPRLPRPRPRPRCAPRP: the “shrunken log2 fold change” value amounted to 0.517.

Take RRIRQRPPRLPRPRPRPFSYPRP: the “shrunken log2 fold change” value is -0.0227.

Turning to RRIRMRPPRLPRPRPRPIHNPRP, the “shrunken log2 fold change” value was -0.58.

Turning to RRIRARPPRLPRPRPRPYKWPRP, the “shrunken log2 fold change” value was -0.393.

With RRIRYRPPRLPRPRPRPNNKPRP, the “shrunken log2 fold change” value was -1.17.

Take RRIRVRPPRLPRPRPRPPCKPRP: the “shrunken log2 fold change” value is 0.106.

In the case of RRIRWRPPRLPRPRPRPLAIPRP, the “shrunken log2 fold change” value was found to be 0.0258.

Consider RRIRRRPPRLPRPRPRPQCPPRP, for which the “shrunken log2 fold change” value is -0.178.

On to RRIRMRPPRLPRPRPRPQKQPRP, for which the “shrunken log2 fold change” value turned out to be 0.0157.

With RRIRFRPPRLPRPRPRPTEGPRP, the “shrunken log2 fold change” value was -0.289.

For RRIRHRPPRLPRPRPRPLKMPRP, the “shrunken log2 fold change” value is -0.182.

As to RRIRNRPPRLPRPRPRPVYIPRP, the “shrunken log2 fold change” value was -0.434.

In the case of RRIRERPPRLPRPRPRPDSSPRP, the “shrunken log2 fold change” value was -0.509.

Regarding RRIRTRPPRLPRPRPRPDGRPRP, the “shrunken log2 fold change” value was -0.0138.

On to RRIRRRPPRLPRPRPRPTHFPRP, for which the “shrunken log2 fold change” value came to 1.01.

In the case of RRIRRRPPRLPRPRPRPVQEPRP, the “shrunken log2 fold change” value was -0.00475.

Take RRIRGRPPRLPRPRPRPLAIPRP: the “shrunken log2 fold change” value stood at 0.567.

RRIRGRPPRLPRPRPRPHSEPRP: the “shrunken log2 fold change” value was 0.194.

As for RRIRARPPRLPRPRPRPDLIPRP, the “shrunken log2 fold change” value came out at 0.235.

With RRIRIRPPRLPRPRPRPVDHPRP, the “shrunken log2 fold change” value was -0.498.

On to RRIRWRPPRLPRPRPRPKSSPRP, for which the “shrunken log2 fold change” value stood at 0.000999.

Take RRIRMRPPRLPRPRPRPPWFPRP: the “shrunken log2 fold change” value worked out at 0.568.

As for RRIRYRPPRLPRPRPRPCKAPRP, the “shrunken log2 fold change” value is -0.073.

With RRIRMRPPRLPRPRPRPNNWPRP, the “shrunken log2 fold change” value is -0.0238.

On to RRIRIRPPRLPRPRPRPKSHPRP, for which the “shrunken log2 fold change” value was -0.451.

For RRIRARPPRLPRPRPRPIAGPRP, the “shrunken log2 fold change” value stood at 0.163.

Turning to RRIRIRPPRLPRPRPRPHVYPRP, the “shrunken log2 fold change” value was -0.112.

As to RRIRIRPPRLPRPRPRPSFGPRP, the “shrunken log2 fold change” value was -0.389.

RRIRMRPPRLPRPRPRPKNQPRP: the “shrunken log2 fold change” value worked out at 0.618.

As to RRIRCRPPRLPRPRPRPFNKPRP, the “shrunken log2 fold change” value was -0.305.

For the sequence RRIRVRPPRLPRPRPRPFNNPRP, the “shrunken log2 fold change” value was -0.147.

On to RRIRERPPRLPRPRPRPTYEPRP, for which the “shrunken log2 fold change” value is -1.47.

Turning to RRIRVRPPRLPRPRPRPTRYPRP, the “shrunken log2 fold change” value was -0.0106.

RRIRFRPPRLPRPRPRPTTRPRP: the “shrunken log2 fold change” value is 0.177.

As to RRIRVRPPRLPRPRPRPMRSPRP, the “shrunken log2 fold change” value is 0.604.

Turning to RRIRIRPPRLPRPRPRPHEQPRP, the “shrunken log2 fold change” value is -0.288.

As for RRIRPRPPRLPRPRPRPMDLPRP, the “shrunken log2 fold change” value is -0.00399.

For RRIRVRPPRLPRPRPRPIHRPRP, the “shrunken log2 fold change” value was -0.3.

For RRIRERPPRLPRPRPRPRYRPRP, the “shrunken log2 fold change” value was -0.198.

Take RRIRGRPPRLPRPRPRPSEEPRP: the “shrunken log2 fold change” value is 0.503.

In the case of RRIRGRPPRLPRPRPRPKQTPRP, the “shrunken log2 fold change” value came to 0.175.

Turning to RRIRMRPPRLPRPRPRPWRRPRP, the “shrunken log2 fold change” value was 0.22.

As to RRIRWRPPRLPRPRPRPENFPRP, the “shrunken log2 fold change” value is 0.00343.

Turning to RRIRDRPPRLPRPRPRPCMRPRP, the “shrunken log2 fold change” value came out at 0.311.

RRIRYRPPRLPRPRPRPEFMPRP: the “shrunken log2 fold change” value is -0.0255.

RRIRKRPPRLPRPRPRPFQIPRP: the “shrunken log2 fold change” value worked out at 0.0332.

In the case of RRIRSRPPRLPRPRPRPQTYPRP, the “shrunken log2 fold change” value is -0.16.

In the case of RRIRYRPPRLPRPRPRPFEFPRP, the “shrunken log2 fold change” value was -0.153.

As to RRIRPRPPRLPRPRPRPFVKPRP, the “shrunken log2 fold change” value was -0.133.

Take RRIRDRPPRLPRPRPRPDYPPRP: the “shrunken log2 fold change” value is 0.00388.

Turning to RRIRIRPPRLPRPRPRPDRCPRP, the “shrunken log2 fold change” value was -0.163.

Regarding RRIRIRPPRLPRPRPRPSYQPRP, the “shrunken log2 fold change” value was -1.32.

Take RRIRTRPPRLPRPRPRPEVGPRP: the “shrunken log2 fold change” value came out at 0.0668.

Regarding RRIRWRPPRLPRPRPRPAMPPRP, the “shrunken log2 fold change” value turned out to be 0.446.

On to RRIRCRPPRLPRPRPRPVCTPRP, for which the “shrunken log2 fold change” value stood at 0.0452.

Regarding RRIRFRPPRLPRPRPRPWEFPRP, the “shrunken log2 fold change” value is -0.12.

For RRIRIRPPRLPRPRPRPFLWPRP, the “shrunken log2 fold change” value was -0.0429.

RRIRFRPPRLPRPRPRPWENPRP: the “shrunken log2 fold change” value was -0.0884.

For the sequence RRIRTRPPRLPRPRPRPTMYPRP, the “shrunken log2 fold change” value was -0.82.

RRIRIRPPRLPRPRPRPWTAPRP: the “shrunken log2 fold change” value is -0.307.

As for RRIRPRPPRLPRPRPRPFTAPRP, the “shrunken log2 fold change” value is -0.332.

As to RRIRMRPPRLPRPRPRPIPVPRP, the “shrunken log2 fold change” value came out at 0.0294.

Regarding RRIRPRPPRLPRPRPRPMVRPRP, the “shrunken log2 fold change” value is -0.0349.

For the sequence RRIRERPPRLPRPRPRPPYIPRP, the “shrunken log2 fold change” value was -0.252.

For RRIRARPPRLPRPRPRPRNEPRP, the “shrunken log2 fold change” value amounted to 0.557.

On to RRIRTRPPRLPRPRPRPHLYPRP, for which the “shrunken log2 fold change” value was -0.154.

As to RRIRWRPPRLPRPRPRPVCKPRP, the “shrunken log2 fold change” value was 0.643.

Turning to RRIRFRPPRLPRPRPRPYNPPRP, the “shrunken log2 fold change” value is -0.237.

As for RRIRIRPPRLPRPRPRPDLEPRP, the “shrunken log2 fold change” value was -0.0323.

On to RRIRFRPPRLPRPRPRPYANPRP, for which the “shrunken log2 fold change” value was -1.28.

Take RRIRPRPPRLPRPRPRPTESPRP: the “shrunken log2 fold change” value was -0.041.

Consider RRIRGRPPRLPRPRPRPRDCPRP, for which the “shrunken log2 fold change” value stood at 1.11.

Take RRIRVRPPRLPRPRPRPWDQPRP: the “shrunken log2 fold change” value was -0.00149.

In the case of RRIRIRPPRLPRPRPRPRGEPRP, the “shrunken log2 fold change” value was 0.0673.

Consider RRIRMRPPRLPRPRPRPNVQPRP, for which the “shrunken log2 fold change” value was -0.166.

Turning to RRIRSRPPRLPRPRPRPGCHPRP, the “shrunken log2 fold change” value was 0.328.

As to RRIRVRPPRLPRPRPRPDDIPRP, the “shrunken log2 fold change” value is -0.442.

For the sequence RRIRKRPPRLPRPRPRPGDEPRP, the “shrunken log2 fold change” value was 0.128.

As to RRIRNRPPRLPRPRPRPWRFPRP, the “shrunken log2 fold change” value is -0.0929.

For the sequence RRIRVRPPRLPRPRPRPGVTPRP, the “shrunken log2 fold change” value was found to be 0.0341.

In the case of RRIRFRPPRLPRPRPRPSTVPRP, the “shrunken log2 fold change” value is -0.325.

Regarding RRIRFRPPRLPRPRPRPLISPRP, the “shrunken log2 fold change” value was -0.178.

On to RRIRVRPPRLPRPRPRPSLGPRP, for which the “shrunken log2 fold change” value amounted to 0.0433.

Regarding RRIRNRPPRLPRPRPRPIMFPRP, the “shrunken log2 fold change” value was -0.0388.

For RRIRNRPPRLPRPRPRPTGYPRP, the “shrunken log2 fold change” value is -0.0249.

Consider RRIRVRPPRLPRPRPRPPVLPRP, for which the “shrunken log2 fold change” value is -0.201.

Consider RRIRVRPPRLPRPRPRPGVNPRP, for which the “shrunken log2 fold change” value was found to be 0.101.

The values are drawn from the supplement of paper PMC9112550, “Optimization of the antimicrobial peptide Bac7 by deep mutational scanning” (BMC Biology, 2022).
